The source of these data is the supplement of paper PMC7125110.

First the molecules themselves.
B1: glmS ribozyme (parent)
chain: AUAAAAGCGCCAGAACUACAGAAAUGUAGUUGACGAGGAGGAGGUUUAUCGAAUUUUCGGCGGAUGCCUCCAAA

Common to all, as to settings: with glucosamine-6-phosphate
Data set [1] covers variants of B1. Nature of the data set: kcat; higher = faster cleavage; RNA array. The method in brief: (§1)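 Ribozyme variants carrying barcodes were transcribed in situ on sequenced MiSeq chips by E. coli RNA polymerase and tracked at 37 °C with a hybridised Cy3 probe. They were exposed to 40 μM to 10 mM glucosamine-6-phosphate in HEPES/KCl/Mg(OAc)2 buffer. kobs came from exponential decay fits of normalised per-tile medians, and kcat and KM from weighted Michaelis–Menten fits.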

The variants in data set [2] derive from B1. In words: KM; higher = weaker cofactor use; RNA array. Put shortly:
as §1

Data set [3] covers variants of B1. In words: self-cleavage kobs at 40 uM GlcN6P; higher = faster cleavage; RNA array. Put shortly: as §1
Data set [4] covers variants of B1. Nature of the data set: self-cleavage kobs at 640 uM GlcN6P; higher = faster cleavage; RNA array. Put shortly:
as §1

Data set [5] covers variants of B1. In words: self-cleavage kobs at 2500 uM GlcN6P; higher = faster cleavage; RNA array. Put shortly:
as §1

The variants in data set [6] derive from B1. In words: self-cleavage kobs at 10000 uM GlcN6P; higher = faster cleavage; RNA array. Put shortly:
as §1

The variants in data set [7] derive from B1. Nature of the data set: self-cleavage kobs at 160 uM GlcN6P; higher = faster cleavage; RNA array. Put shortly:
as §1

± gives the standard error. For some of these results: Variants at the floor of the assay were thinned out.

For the variant U45C U55A, in data set [1], the kcat was 0.00681 ± 0.0026 s⁻¹. Also, in data set [2], the KM was found to be 5900 ± 2800 µM. In data set [3], the “self-cleavage kobs at 40 uM GlcN6P” value is 5.89e-05 ± 1.4e-05 s⁻¹. Also, the “self-cleavage kobs at 640 uM GlcN6P” value in data set [4] is 0.000581 ± 0.00013 s⁻¹. Moreover, the “self-cleavage kobs at 2500 uM GlcN6P” value in data set [5] came out at 0.00182 ± 0.00067 s⁻¹. In addition, the “self-cleavage kobs at 10000 uM GlcN6P” value in data set [6] turned out to be 0.00457 ± 0.0012 s⁻¹.

With A14U A36U, the kcat in data set [1] is under 1e-05 s⁻¹. In addition, the “self-cleavage kobs at 160 uM GlcN6P” value in data set [7] was under 1e-05 s⁻¹. The “self-cleavage kobs at 2500 uM GlcN6P” value in data set [5] is under 1e-05 s⁻¹. Moreover, the “self-cleavage kobs at 10000 uM GlcN6P” value in data set [6] is under 1e-05 s⁻¹.

As to G37C G60C, in data set [1], the kcat is under 1e-05 s⁻¹. The “self-cleavage kobs at 10000 uM GlcN6P” value in data set [6] is under 1e-05 s⁻¹.

Turning to A12C C67U, the kcat in data set [1] turned out to be 0.00763 ± 0.0029 s⁻¹. Besides, the KM in data set [2] was 2210 ± 1000 µM. In data set [3], the “self-cleavage kobs at 40 uM GlcN6P” value was 0.000156 ± 1.3e-05 s⁻¹. Moreover, the “self-cleavage kobs at 160 uM GlcN6P” value in data set [7] stood at 0.000508 ± 5.5e-05 s⁻¹. Besides, the “self-cleavage kobs at 640 uM GlcN6P” value in data set [4] stood at 0.00137 ± 0.0002 s⁻¹. Besides, the “self-cleavage kobs at 2500 uM GlcN6P” value in data set [5] was determined as 0.00322 ± 0.00048 s⁻¹. Also, the “self-cleavage kobs at 10000 uM GlcN6P” value in data set [6] worked out at 0.00923 ± 0.0012 s⁻¹.

For A33U G40U, the kcat in data set [1] came to 5.28e-05 ± 4e-06 s⁻¹. Moreover, the “self-cleavage kobs at 40 uM GlcN6P” value in data set [3] was under 1e-05 s⁻¹. The “self-cleavage kobs at 160 uM GlcN6P” value in data set [7] is under 1e-05 s⁻¹. The “self-cleavage kobs at 10000 uM GlcN6P” value in data set [6] worked out at 1.68e-05 ± 7.9e-06 s⁻¹.

Take C70U C71U: in data set [1], the kcat was 0.00193 ± 0.00073 s⁻¹. In addition, in data set [2], the KM was found to be 4150 ± 1900 µM. The “self-cleavage kobs at 40 uM GlcN6P” value in data set [3] was found to be 3.19e-05 ± 5.6e-06 s⁻¹. Also, the “self-cleavage kobs at 160 uM GlcN6P” value in data set [7] came to 8.1e-05 ± 8.1e-06 s⁻¹. In addition, the “self-cleavage kobs at 640 uM GlcN6P” value in data set [4] is 0.000229 ± 1.8e-05 s⁻¹. Besides, the “self-cleavage kobs at 2500 uM GlcN6P” value in data set [5] stood at 0.000753 ± 0.00013 s⁻¹. Moreover, in data set [6], the “self-cleavage kobs at 10000 uM GlcN6P” value was 0.00146 ± 0.00021 s⁻¹.

As to G51A C70G, in data set [1], the kcat was found to be 3.48e-05 ± 7.3e-06 s⁻¹.

Regarding A15U A52G, the kcat in data set [1] worked out at 0.00041 ± 2.6e-05 s⁻¹. Moreover, the KM in data set [2] was determined as 2270 ± 280 µM. In data set [4], the “self-cleavage kobs at 640 uM GlcN6P” value was determined as 8.94e-05 ± 1.6e-05 s⁻¹. In data set [5], the “self-cleavage kobs at 2500 uM GlcN6P” value is 0.000222 ± 3.6e-05 s⁻¹. In data set [6], the “self-cleavage kobs at 10000 uM GlcN6P” value is 0.000331 ± 4.6e-05 s⁻¹.

For C10G A52U, the kcat in data set [1] was under 1e-05 s⁻¹. Besides, in data set [3], the “self-cleavage kobs at 40 uM GlcN6P” value was under 1e-05 s⁻¹. Further, the “self-cleavage kobs at 160 uM GlcN6P” value in data set [7] was under 1e-05 s⁻¹. The “self-cleavage kobs at 640 uM GlcN6P” value in data set [4] is under 1e-05 s⁻¹.

With G37A U46C, the kcat in data set [1] was 0.0015 ± 0.00029 s⁻¹. The KM in data set [2] turned out to be 4230 ± 1100 µM. Besides, the “self-cleavage kobs at 160 uM GlcN6P” value in data set [7] came out at 5.92e-05 ± 9.2e-06 s⁻¹. The “self-cleavage kobs at 640 uM GlcN6P” value in data set [4] was found to be 0.000204 ± 3e-05 s⁻¹. The “self-cleavage kobs at 2500 uM GlcN6P” value in data set [5] was determined as 0.00046 ± 8e-05 s⁻¹. Besides, the “self-cleavage kobs at 10000 uM GlcN6P” value in data set [6] amounted to 0.00117 ± 0.00017 s⁻¹.

For the variant C10A A53G, in data set [1], the kcat amounted to 1.35e-05 ± 4.5e-06 s⁻¹. Moreover, the “self-cleavage kobs at 40 uM GlcN6P” value in data set [3] was under 1e-05 s⁻¹. Further, in data set [7], the “self-cleavage kobs at 160 uM GlcN6P” value was under 1e-05 s⁻¹.

In the case of G62A C68U, the kcat in data set [1] is under 1e-05 s⁻¹. In addition, the “self-cleavage kobs at 10000 uM GlcN6P” value in data set [6] is under 1e-05 s⁻¹.

For the variant A33G C50G, the kcat in data set [1] worked out at 0.000122 ± 3.3e-05 s⁻¹. In data set [7], the “self-cleavage kobs at 160 uM GlcN6P” value was found to be 7.8e-05 ± 1.6e-05 s⁻¹. In data set [4], the “self-cleavage kobs at 640 uM GlcN6P” value amounted to 0.000161 ± 2.3e-05 s⁻¹. In addition, in data set [5], the “self-cleavage kobs at 2500 uM GlcN6P” value was 0.000102 ± 1.6e-05 s⁻¹.

Regarding C16G C61U, the kcat in data set [1] was under 1e-05 s⁻¹. Besides, in data set [3], the “self-cleavage kobs at 40 uM GlcN6P” value is under 1e-05 s⁻¹. The “self-cleavage kobs at 160 uM GlcN6P” value in data set [7] is under 1e-05 s⁻¹.

As for G60C G66A, the kcat in data set [1] was under 1e-05 s⁻¹. The “self-cleavage kobs at 640 uM GlcN6P” value in data set [4] is under 1e-05 s⁻¹.

Take A53G U65A: the kcat in data set [1] was 0.00318 ± 0.00053 s⁻¹. Also, the KM in data set [2] came to 1530 ± 350 µM. Further, the “self-cleavage kobs at 40 uM GlcN6P” value in data set [3] came out at 8.56e-05 ± 1.5e-05 s⁻¹. Also, the “self-cleavage kobs at 160 uM GlcN6P” value in data set [7] came out at 0.000257 ± 5e-05 s⁻¹. Also, the “self-cleavage kobs at 640 uM GlcN6P” value in data set [4] was determined as 0.00114 ± 0.00019 s⁻¹. In addition, in data set [5], the “self-cleavage kobs at 2500 uM GlcN6P” value was 0.00184 ± 0.00046 s⁻¹. The “self-cleavage kobs at 10000 uM GlcN6P” value in data set [6] stood at 0.00272 ± 0.00056 s⁻¹.

Take U31C U56C: in data set [1], the kcat is 0.00169 ± 0.00055 s⁻¹. In data set [2], the KM was found to be 2910 ± 1200 µM. Further, in data set [7], the “self-cleavage kobs at 160 uM GlcN6P” value is 9.03e-05 ± 1.1e-05 s⁻¹. For the same variant, the “self-cleavage kobs at 640 uM GlcN6P” value in data set [4] is 0.000331 ± 5.8e-05 s⁻¹. Moreover, the “self-cleavage kobs at 2500 uM GlcN6P” value in data set [5] worked out at 0.000644 ± 0.00011 s⁻¹. In data set [6], the “self-cleavage kobs at 10000 uM GlcN6P” value stood at 0.00171 ± 0.00034 s⁻¹.

The kcat is the number of substrate molecules converted per active site and unit of time at saturation. A word on the KM: it is the concentration of substrate that gives half-maximal velocity.
